This note sets out measurements from PMC9389230, “Connective tissue growth factor-targeting DNA aptamer suppresses pannus formation as diagnostics and therapeutics for rheumatoid arthritis”.

The target of one series is CTGF (CCN2) (UniProt P29279 27-349). The experiment in a line: SPR; SPR: PBS running buffer, CTGF on CM5 chip, aptamer 9.375-600 nM, 10 ul/min (SA chip with biotinylated aptamer for cytokines and CTGF deletion mutants); dot blot: nitrocellulose, 10% BSA block, 1 uM biotinylated aptamer, room temperature; pH not stated. Particulars: protein: commercial; label: biotin or Cy5 depending on assay.
Chain of CTGF (CCN2) (P29279 27-349): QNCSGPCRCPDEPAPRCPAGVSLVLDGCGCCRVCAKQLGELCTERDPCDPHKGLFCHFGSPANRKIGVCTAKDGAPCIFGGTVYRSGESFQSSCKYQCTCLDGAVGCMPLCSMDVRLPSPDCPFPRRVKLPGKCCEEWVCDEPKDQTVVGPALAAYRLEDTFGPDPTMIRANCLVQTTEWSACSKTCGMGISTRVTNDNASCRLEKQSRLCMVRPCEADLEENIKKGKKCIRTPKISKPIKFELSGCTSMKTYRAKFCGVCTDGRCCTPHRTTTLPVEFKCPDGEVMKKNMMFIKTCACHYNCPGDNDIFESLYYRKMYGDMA

For the next series, the target named is murine CTGF (SPR) (mouse, UniProt P29268 26-348). The series is described as above. The following applies: protein: recombinant; label: biotin or Cy5 depending on assay.
Chain of murine CTGF (SPR) (P29268 26-348): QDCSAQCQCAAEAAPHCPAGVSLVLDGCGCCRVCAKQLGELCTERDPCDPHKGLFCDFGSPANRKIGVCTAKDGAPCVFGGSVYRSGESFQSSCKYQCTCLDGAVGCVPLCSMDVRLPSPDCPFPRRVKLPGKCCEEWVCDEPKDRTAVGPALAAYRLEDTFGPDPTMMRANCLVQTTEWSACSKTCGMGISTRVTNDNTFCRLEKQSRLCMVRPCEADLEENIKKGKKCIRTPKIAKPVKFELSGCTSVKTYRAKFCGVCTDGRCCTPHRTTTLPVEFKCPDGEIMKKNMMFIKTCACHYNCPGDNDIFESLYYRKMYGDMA

The term Kd denotes the concentration at which binding is half-saturated.

AGGCCGGGAGGGTACCCATTGATGGTGTGATGACTGCCT (ssDNA, 3' PEG (high molecular mass)) [AptW2-1-39-PEG] gave a Kd with CTGF (CCN2) of 7.86 nM. Moreover, the binding result with murine CTGF (SPR) was “binds”.
